In patent US6399065 (SCHERING, dated 2002):

B1: human SLAM (SLAM1, encoded by pSURslam1), cell surface (receptor)
chain: RMMNCPKILRQLGSKVLLPLTYERINKSMNKSIHIVVTMAKSLENSVENKIVSLDPSEAGPPRYLGDRYKFYLENLTLGIRESRKEDEGWYLMTLEKNVSVQRFCLQLRLYEQVSTPEIKVLNKTQENGTCTLILGCTVEKGDHVAYSWSEKAGTHPLNPANSSHLLSLTLGPQHADNIYICTVSNPISNNSQTFSPWPGCRTDPSETKPWAVYAGLLGGVIMILIMVVILQLRRRGKTNHYQTTVEKKSLTIYAQVQKPGPLQKKLDSFPAQDPCTTIYVAATEPVPESVQETNSITVYASVTLPES
B2: SLAM-Ig (SLAM-immunoglobulin fusion protein: entire extracellular domain of human SLAM fused to the Fc portion of human IgG1 heavy chain) (Fc fusion)
chain: ASYGTGGRMMNCPKILRQLGSKVLLPLTYERINKSMNKSIHIVVTMAKSLENSVENKIVSLDPSEAGPPRYLGDRYKFYLENLTLGIRESRKEDEGWYLMTLEKNVSVQRFCLQLRLYEQVSTPEIKVLNKTQENGTCTLILGCTVEKGDHVAYSWSEKAGTHPLNPANSSHLLSLTLGPQHADNIYICTVSNPISNNSQTFSPWPGCRTDPSETKP
notes: Fluorescein conjugated for flow cytometry; also called recombinant SLAM-Ig; soluble form of SLAM (SLAM-Ig); not shown: Fc portion of the human IgG1 heavy chain

Tests used:
[1] = target: human SLAM (SLAM1, encoded by pSURslam1), cell surface (human) (UniProt Q13291); test: cell-based or functional assay
[2] = target: the molecule itself; test: cell-based or functional assay
[3] = target: the molecule itself; test: SPR (BIACORE), SLAM-Ig immobilized, SLAM-Ig in solution at 100 nM to 1500 nM, 5 µl/min
Procedure: (§1) Ab 7D4/SLAM-Ig and SLAM-Ig/SLAM-Ig binding kinetics and affinity were measured. About 8000 resonance units (RUs) of SLAM-Ig were covalently attached to the dextran matrix in the sensor chip via its lysines, according to the manufacturers protocol (BIACORE™ manual, Pharmacia Biosensor). Buffer (phosphate-buffer saline, PBS, pH 7.0) was passed through the flow cell until all of the dissociable protein was removed and the baseline remained stable. Solutions containing various concentrations of the antibody 7D4 in PBS (ranging from 10 nM to 500 nM) were then passed through the flow cell. An increase in mass of protein bound was observed, followed by a decrease when the protein solution was replaced with buffer. A non-linear data analysis protocol, O'Shannessy, et al. (1993) *Anal. Biochem.* 212:457–468, was used to analyze the data to determine the association (k_a) and dissociation (k_d) rate constants. The equilibrium dissociation constant K_d was then calculated from the ratio k_d/k_a.
SLAM-Ig/SLAM-Ig binding kinetics were measured in a similar manner. After immobilization of SLAM-Ig to the chip, solutions of SLAM-Ig at concentrations ranging from 100 nM to 1500 nM were passed through the flow cell at a flow rate of 5 μl/min. From the association and dissociation phases, the corresponding rate constants and thus the equilibrium binding constant were obtained.

[4] = target: the molecule itself; test: SPR (BIACORE), SLAM-Ig immobilized, SLAM-Ig in solution; apparent Kd from the rate constants
Procedure: The equilibrium constants for SLAM/SLAM interactions were analyzed by surface plasmon resonance using a BIACORE™ (Pharmacia) instrument. An anti-SLAM Ab 7D4 was used.
as §1
SLAM-Ig/SLAM-Ig binding kinetics were measured in a similar manner. […]

[5] = target: B1; test: flow cytometry on SLAM/L cells; reference mAb A12
Procedure: The binding of SLAM-Ig to SLAM transfectants is specific for the SLAM portion of the molecule and not the Ig, as the staining was performed in the presence of excess IgG in the 30% human serum added. Furthermore, SLAM transfectants were not stained by other Fc containing molecules such as CD40-Ig. The binding of SLAM-Ig was about 5-fold lower than the binding to SLAM/L cells observed using an equivalent concentration of the mAb A12. […] SLAM-Ig binding to transfected cells was not inhibited by EDTA.
(§2) The A12 anti-SLAM mAb has been described. Phycoerythrin conjugated CD45RO and CD3 mAbs were purchased from Becton-Dickinson. Cells stained with mAbs, SLAM-Ig or CD40-Ig were washed three times with PBS, 2% FCS and analyzed using a FACScan (Becton-Dickinson).

[6] = target: B1; test: flow cytometry on different SLAM-expressing cell types; reference mAb A12
Source text: as §2
However, SLAM-Ig did bind to EBV-transformed B-cell lines and CD4^+ T-cell clones, both cell types which we have shown to express SLAM. In no cell types tested did SLAM-Ig bind to cells not expressing SLAM. In addition, the levels of SLAM-Ig binding co-modulated with SLAM expression on CD45RO^+ T cells following activation with anti-CD3. The level of SLAM-IG staining relative to A12 staining on different cell-types was consistent with that observed on L-cell transfectants being 5-fold lower and Ca^++ independent.

“anti-SLAM monoclonal antibody A12 (IgG1)” showed an IFN-γ production (pg/ml) by antigen-stimulated T-cell clone Th0/ChT38; no antibody 5207, control Ab 7463 [1] of 20600 pg/mL, an IFN-γ production (pg/ml) by antigen-stimulated T-cell clone Th0/MoT81; no antibody 5423, control Ab 6596 [1] of 18200 pg/mL and an IFN-γ production (pg/ml) by antigen-stimulated T-cell clone Th1/HY06; no antibody 5982, control Ab 5904 [1] of 21900 pg/mL. The IFN-γ production (pg/ml) by antigen-stimulated T-cell clone Th1/TA20; no antibody 8374, control Ab 8070 [1] was 15400 pg/mL, the IFN-γ production (pg/ml) by antigen-stimulated T-cell clone Th2/MoT72; no antibody 496, control Ab 170 [1] was 8580 pg/mL and the IFN-γ production (pg/ml) by antigen-stimulated T-cell clone Th2/NP12; no antibody 962, control Ab 902 [1] was 8300 pg/mL. For the same molecule, the IFN-γ production (pg/ml) by antigen-stimulated T-cell clone Th2/NP44; no antibody 1073, control Ab 1319 [1] was 7660 pg/mL, the IFN-γ production by Th2 clones, fold upregulation [1] was 5 to 17 fold and the IL-4 production (pg/ml) by antigen-stimulated T-cell clone Th0/ChT38; no antibody 12907, control Ab 10102 [1] was 15000 pg/mL. For the same molecule, the IL-4 production (pg/ml) by antigen-stimulated T-cell clone Th0/MoT81; no antibody 8455, control Ab 8451 [1] was 11100 pg/mL, the IL-4 production (pg/ml) by antigen-stimulated T-cell clone Th1/HY06; no antibody 48, control Ab 40 [1] was 90 pg/mL and the IL-4 production (pg/ml) by antigen-stimulated T-cell clone Th1/TA20; no antibody 62, control Ab 69 [1] was 97 pg/mL. The IL-4 production (pg/ml) by antigen-stimulated T-cell clone Th2/MoT72; no antibody 8805, control Ab 8542 [1] was 16500 pg/mL, the IL-4 production (pg/ml) by antigen-stimulated T-cell clone Th2/NP12; no antibody 6636, control Ab 6486 [1] was 11100 pg/mL and the IL-4 production (pg/ml) by antigen-stimulated T-cell clone Th2/NP44; no antibody 11617, control Ab 11738 [1] was 10400 pg/mL. For the same molecule, the anti-CD3 induced T-cell proliferation at optimal anti-CD3, fold increase [1] was 2 to 3 fold.

In the case of B1, the “proliferation of T cell clone B21 activated with SLAM/L cells, fold enhancement by cyclosporin at 2 µg/ml” value [2] is reported as 2 fold.

Molecule B2 has a koff [3] of 0.011 s⁻¹, a kon [3] of 12000 M⁻¹ s⁻¹ and a Kd [4] of 920 nM. The “fold lower binding than an equivalent concentration of mAb A12” value [5] was ~5 fold and the “fold lower staining relative to A12 staining” value [6] was 5 fold.
